In patent US20090142855, “Polynucleotides and Polypeptides of the IL-12 Family of Cytokines” (published 2009):

Legend:
[1] = target: T1, IL-23 (p19/p40 heterodimer) (Homo sapiens, UniProt P29460;Q9NPF7 P29460:23-328,Q9NPF7:20-189); test: FP; conditions: label: 5'-32P
[2] = target: T1, IL-23 (p19/p40 heterodimer); test: filter; dot blot nitrocellulose; Dulbecco's PBS with Ca2+ and Mg2+, 0.1 mg/mL BSA, room temp 30 min; conditions: label: 5'-32P
Protocol: Aptamer binding affinity determination. Trace 5′-³²P-labeled aptamers were combined with protein (IL-23 or IL-12) at various concentrations and incubated at room temperature for 30 minutes in Dulbecco's PBS (PBS plus Ca²⁺, Mg²⁺) plus 0.1 mg/mL BSA. Each titration curve was tested in duplicate. The reactions were then added to a dot blot apparatus (Minifold-1 Dot Blot, Acrylic, Schleicher and Schuell, Keene, N.H.), assembled (from top to bottom) with Protran nitrocellulose (Schleicher and Schuell, Keene, N.H.), Hybond-P nylon (Amersham Biosciences, Piscataway, N.J.) and GB002 gel blot paper (Schleicher and Schuell, Keene, NH). Aptamers bound to protein are retained on the nitrocellulose filter, whereas the non-protein bound RNA is captured on the nylon filter. The extent of aptamer capture on each filter was quantitated using a Phosphoimager (Molecular Dynamics). Equilibrium dissociation constants (KD) were calculated using the equation: […]
FIGS. 3 and 4 show the comparison of the aptamer binding curves (in duplicate) to cynomolgus IL-23, cynomolgus IL-12, and human IL-23.

T1 sequence (P29460 23-328, chain 1 of 2): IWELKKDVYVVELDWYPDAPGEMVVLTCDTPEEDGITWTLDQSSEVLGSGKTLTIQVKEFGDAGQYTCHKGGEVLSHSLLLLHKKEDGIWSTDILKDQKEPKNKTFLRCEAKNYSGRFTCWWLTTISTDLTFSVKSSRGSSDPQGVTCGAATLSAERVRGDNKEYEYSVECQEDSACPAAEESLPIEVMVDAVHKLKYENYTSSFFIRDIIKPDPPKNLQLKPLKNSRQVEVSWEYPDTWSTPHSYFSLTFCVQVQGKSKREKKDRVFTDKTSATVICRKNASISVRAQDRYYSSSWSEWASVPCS
T1 sequence (Q9NPF7 20-189, chain 2 of 2): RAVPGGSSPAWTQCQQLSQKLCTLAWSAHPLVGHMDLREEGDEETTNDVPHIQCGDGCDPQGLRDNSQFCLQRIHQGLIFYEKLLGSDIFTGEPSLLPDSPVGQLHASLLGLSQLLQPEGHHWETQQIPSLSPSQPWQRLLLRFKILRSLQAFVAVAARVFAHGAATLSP

Row | Binder | Kd [1] [nM] | Kd [2] [nM]
1 | ACAGGCAAGUAAUUGGGGAGUGCGGGCGGGGUGU (mixed, 2'-OMe at all C and all U and at G16, G17, G24, G25, G30, G31; all other nucleotides 2'-deoxy (all A deoxy); PS after positions 17, 18, 19, 21; 3' inverted dT) [ARC1623] | 0.25 | –
2 | ACAGGCAAGUAAUUGGGGAGUGCGGGCGGGGUGU (mixed, 2'-OMe at all C and all U and at G16, G17, G24, G25, G30, G31; all other nucleotides 2'-deoxy (all A deoxy); PS after positions 2, 3, 4, 6, 7, 8, 10, 11, 14, 17, 18, 19, 21, 25, 27, 28, 32; 3' inverted dT) [ARC1626] | – | 0.15
